Test results as given in patent US20070016969A1.

Molecular target: Bovine thrombin (Sigma) (bovine) (UniProt P00735)
Assay: cell-based or functional assay

Row | amount of culture medium at which there is no coagulation (plasma coagulation, A405) [µL] | amount of culture medium needed for the anti-coagulation reaction at the A405 reading of 0.05 [µL] | amount of homogeneous extract of mammary gland cells at which there is no coagulation (plasma coagulation, A405) [mg] | amount of homogeneous extract of mammary gland cells needed for the anti-coagulation reaction at the A405 reading of 0.05 [mg] | Substance | amount at which there is almost no coagulation (plasma coagulation, A405) [pmol] | amount needed for the anti-coagulation reaction at the A405 reading of 0.05 [pmol]
1 |  |  |  |  | commercially available nature hirudin (Sigma) (from UniProt P01050 1-65) | 0.16 | 0.52
2 | 10 | 0.95 | 0.25 | 0.056 | hirudin encoded by the full-length DNA fragment Hi (SEQ ID NO: 17), expressed from pE-αLA-Hi in NMuMG mammary gland cells (from UniProt P01050 1-65) |  | 
